# Assay: soluble on expression in E. coli; label from the status in PepcDB or PDB records
row,Sequence,soluble on expression in E. coli
1,MGSDKIHHHHHHMTVSMEQLEAFVAAAEHGSFSAAGRALRKAQSAVSTQVSNLEEDLGLELFSRQGRNPTLTAAGERLLSEARLILDRREHLIGVAASFEAHVEKRLVVAIDELYPEHALGELFAEFAVHFPHVELELLFPMMEDVSRLVLDGKADIGVMWRQEDLPAELGFHTIGWVQLKLVCGRNHPLANAVVGWEDLKRHRQIMVTVRTEGMERHRLRVAAEVWWVESHWVILQILKQGIGWALIPAHILARSPVAQDLAIPALQFDDGAHPVALELVWHKQRPSGPAATWLRKRFATTKIDMVAE,not soluble
2,SNAMLNIVLFEPEIPPNTGNIIRLCANTGCQLHLIKPLGFTWDDKRLRRAGLDYHEFADIKHHHDYQAFLDSEKLDSTQPARLFALTTKGTPAHSAVSYQANDYLLFGPETRGLPAYILDALPAQQKIRIPMQADSRSMNLSNAVSVVVYEAWRQLGYPGALLKE,soluble
3,MNPILAMLKENNISNEQINELFQTLTQNPLAAMATLAQLGLPQDKMQMVLAQVMQNPALIKQAVEELGLDFAKVEAAKAKLQQ,not soluble
4,MGHHHHHHQQIMKGNFSSFMQKEIFEQPESVVNTMRGRVNFDDYTVNLGGLKDHIKEIQRCRRLILIACGTSYHAGVATRQVLEELTELPVMVELASDFLDRNTPVFRDDVCFFLSQSGETADTLMGLRYCKERGALTVGITNTVGSSISRETDCGVHINAGPEIGVASTKAYTSQFVSLVMFALMMCDDRISMQERRKEIMLGLKRLPDLIKEVLSMDDEIQKLATELYHQKSVLIMGRGYHYATCLEGALKIKEITYMHSEGILAGELKHGPLALVDKLMPVIMIIMRDHTYAKCQNALQQVVARQGRPVVICDKEDTETIKNTKRTIKVPHSVDCLQGILSVIPLQLLAFHLAVLRGYDVDFPRNLAKSVTVE,soluble
5,SNVRATYTVIFKNASGLPNGYDNWGWGCTLSYYGGAMIINPQEGKYGAVSLKRNSGSFRGGSLRFDMKNEGKVKILVENSEADEKFEVETISPSDEYVTYILDVDFDLPFDRIAFQDAPGNGDRIWIKNLVHSTGSADDFVDPINLEHHHHHH,soluble
6,MGHHHHHHENLYFQGMKKEKVEQILAEFQLQEEDLKKVMRRMQKEMDRGLRLETHEEASVKMLPTYVRSTPEGSEVGDFLSLDLGGTNFRVMLVKVGEGEEGQWSVKTKHQMYSIPEDAMTGTAEMLFDYISECISDFLDKHQMKHKKLPLGFTFSFPVRHEDIDKGILLNWTKGFKASGAEGNNVVGLLRDAIKRRGDFEMDVVAMVNDTVATMISCYYEDHQCEVGMIVGTGCNACYMEEMQNVELVEGDEGRMCVNTEWGAFGDSGELDEFLLEYDRLVDESSANPGQQLYEKLIGGKYMGELVRLVLLRLVDENLLFHGEASEQLRTRGAFETRFVSQVESDTGDRKQIYNILSTLGLRPSTTDCDIVRRACESVSTRAAHMCSAGLAGVINRMRESRSEDVMRITVGVDGSVYKLHPSFKERFHASVRRLTPSCEITFIESEEGSGRGAALVSAVACKKACMLGQ,soluble
7,MRGSPHHHHHHGSAKNVVLDHDGNLDDFVAMVLLASNTEKVRLIGALCTDADCFVENGFNVTGKIMCLMHNNMNLPLFPIGKSAATAVNPFPKEWRCLAKNMDDMPILNIPENVELWDKIKAENEKYEGQQLLADLVMNSEEKVTICVTGPLSNVAWCIDKYGEKFTSKVEECVIMGGAVDVRGNVFLPSTDGTAEWNIYWDPASAKTVFGCPGLRRIMFSLDSTNTVPVRSPYVQRFGEQTNFLLSILVGTMWAMCTHCELLRDGDGYYAADALTAAYVVDQKVANVDPVPIDVVVDKQPNEGATVRTDAENYPLTFVARNPEAEFFLDMLLRSARAC,soluble
8,KMLDEKFYSKLLGEELDLIICLPPDFSPLYKYPLFIVQDGKDYFQFGKLARHSEELAVNEQIQKAIFIGIPYKTVMDRREKYHPDGEQNEAYIRFLAFELVPYLEERFPSFQMPTSRFL,not soluble
9,MHYFSIHDQSGRHIGFFILLADDESEARPQSGRFAVKLEGGMENHVLSPFGQTEIPQYWRVVKDRIELFFDEAPVGTLRNEYLTVSGQTFVLNDLTGNM,not soluble
10,MSKTTQSRETTLAGHPVEYEVRRSEDATEPRIDIDIRGVTVVLPAESEESPEALLSENLNWVLETKRTYERHRERAPERRFEPGAAFPYLGDDHEIVVEPRPAHGVGDGEIRLRQSTVDQSSLKRVLENFYRSRAREHLTDRTDALADSMNHTYDRIELRNQRTRWGSCSTNGVLSFNWRLVMAPPDVIDYVVVHELAHLRESGHNDRFWRLVEMEIPEYRELSDWLDTNSVDLIFSKDDLLEHHHHHH,soluble
11,MKWFRFPIAVIGLVLLSGCATQNESATQWLYPPMAVPLQASIQQEVQIARLSQLLQRTDLEPEIRAKMLFERGNYYDSVGLRDLARLDFTQSLSINPAQPDVFNLLGVYYTEAGEFDAAYESFDSTLELDPSNEYAVRNRAIALYYGERPQLALEEITKHYQQDPQDPFRALWLYIIESDIDPTKARTELLERYQQHDEQWGWVLVGLMLDQLSEEVAFKAIIAGSRENELLAQRLTEAYFYLGKRYQMQGELAHALSLYKLAISFNVYEYVEHRYAFLELGRIYQQAREEQLARAKAEAMTQ,not soluble
12,MGSDKIHHHHHHMADGGSERADGRIVKMEVDYSATVDQRLPECAKLAKEGRLQEVIETLLSLEKQTRTASDMVSTSRILVAVVKMCYEAKEWDLLNENIMLLSKRRSQLKQAVAKMVQQCCTYVEEITDLPIKLRLIDTLRMVTEGKIYVEIERARLTKTLATIKEQNGDVKEAASILQELQVETYGSMEKKERVEFILEQMRLCLAVKDYIRTQIISKKINTKFFQEENTEKLKLKYYNLMIQLDQHEGSYLSICKHYRAIYDTPCIQAESEKWQQALKSVVLYVILAPFDNEQSDLVHRISGDKKLEEIPKYKDLLKLFTTMELMRWSTLVEDYGMELRKGSLESPATDVFGSTEEGEKRWKDLKNRVVEHNIRIMAKYYTRITMKRMAQLLDLSVDESEAFLSNLVVNKTIFAKVDRLAGIINFQRPKDPNNLLNDWSQKLNSLMSLVNKTTHLIAKEEMIHNLQ,not soluble
13,MKRRDILKGGLAAGALALLPRGHTQGALQNQPSLGRRYRNLIVFVYDGFSWEDYAIAQAYARRRQGRVLALERLLARYPNGLINTYSLTSYVTESSAAGNAFSCGVKTVNGGLAIHADGTPLKPFFAAAKEAGKAVGLVTTTTVTHATPASFVISNPDRNAEERIAEQYLEFGAEVYLGGGDRFFNPARRKDGKDLYAAFAAKGYGVVRTPEELVRSNATRLLGVFADGHVPYEIDRRFQGLGVPSLKEMVQAALPRLAAHRGGFVLQVEAGRIDHANHLNDAGATLWDVLAADEVLELLTAFVDRNPDTLLIVVSDHATGVGGLYGAGRSYLESSQGVDLLEPQRASFEHMLRVLGQAPEASQVKEAFRAMKGVDLEDAEAERVVRAIREKVYWPEGVRQGVQPANTMAWAMVQRDAQKPDRPNIGWSSGQHTASPVMLLLYGQGLRFVNLGLVDNTHVFRLMGEALGLRYQNPVMSEEEALEILKARPQGMRHPEDVWA,soluble
14,MDIKNWSVYNKLYVGGGISDDVQTNTSETYDKEKDCWTLDNGHLVPHNYIMYKCEPVKHRYPLEKTQYTNDFLKYLESFIGS,not soluble
15,MAHHHHHHMPLLTRGQRRLLEYVAHDGGTKGLKRRRMEDVAPVLHKRKQKWTHKFTTKTASADASLAEVPLSSEVLEFLREYCPKVPRKLRQSQLRVISDLSGAFGGNSEKEEGETFTVKRVELKENAEVFAVVALAALQRRALWSGSTPQGASLFVLVETDADAAALAAHMGNTYKMTRTLVLDGSRFPTFPAVEKDDAATATTLAERTALVIASLQAFVTVDARSAIWKFIGAYAIWLKSSKPPALLQEMADGTRSELEENCAGSGGVVWDMPRWLLSLLHRESPSLHP,not soluble
16,HVYAFDIQESAVANTKERLGDMYQARTTLFHKSHDKIAESLPPETHGKVAAAVFNLGYLPGGDKSITTNGSSTIKAIEQLLSIMKDEGLIVLVVYHGHPEGKAEKNDVLEFCRDLDQQTARVLTYGFINQQNDPPFIVAIEKKAQISK,not soluble

# From the DeepSol protein solubility set
